Assay results: FireProtDB (doi:10.1006/jmbi.2000.3958)

B1: Cyclin-dependent kinases regulatory subunit, P08463 (parent)
chain: MSKSGVPRLLTASERERLEPFIDQIHYSPRYADDEYEYRHVMLPKAMLKAIPTDYFNPETGTLRILQEEEWRGLGITQSLGWEMYEVHVPEPHILLFKREKDYQMKFSQQRGG

Variants of: B1
Details: Schizosaccharomyces pombe (strain 972 / ATCC 24843); pH 7.5; 25 °C; Urea; Fluorescence; Tris 50 mM; structure 1SCE; whole UniProt chain shown

Variant | ddG of mutation (higher = less stable) | denaturant m value | denaturant midpoint (higher = more stable)
MSKSGVPRLLTASERERLEPFIDQIHYSPRYADDEYEYRHVMLPKAMLKAIPTDYFNPETGTLRILQEEEWRGLGITQSLGWEMYEVHVPEAHILLFKREKDYQMKFSQQRGG | -0.07 kcal/mol | 1.78 kcal/mol/M | 4.46 M
MSKSGVPRLLTASERERLEPFIDQIHYSPRYADDEYEYRHVMLPKAMLKAIPTDYFNPETGTLRILQEEEWRGLGITQSLGWEMYEVHVPEGHILLFKREKDYQMKFSQQRGG | -0.07 kcal/mol | 1.55 kcal/mol/M | 4.46 M
MSKSGVARLLTASERERLEPFIDQIHYSPRYADDEYEYRHVMLPKAMLKAIPTDYFNPETGTLRILQEEEWRGLGITQSLGWEMYEVHVPEPHILLFKREKDYQMKFSQQRGG | 0.2 kcal/mol | 1.57 kcal/mol/M | 4.29 M
MSKSGVPRLLTASERERLEPFIDQIHYSPRYADDEYEYRHVMLPKAMLKAIATDYFNPETGTLRILQEEEWRGLGITQSLGWEMYEVHVPEPHILLFKREKDYQMKFSQQRGG | 2.57 kcal/mol | 1.75 kcal/mol/M | 2.81 M
MSKSGVPRLLTASERERLEPFIDQIHYSPRYADDEYEYRHVMLAKAMLKAIPTDYFNPETGTLRILQEEEWRGLGITQSLGWEMYEVHVPEPHILLFKREKDYQMKFSQQRGG | 3.04 kcal/mol | 1.56 kcal/mol/M | 2.52 M
MSKSGVPRLLTASERERLEPFIDQIHYSPRYADDEYEYRHVMLPKAMLKAIPTDYFNPETGTLRILQEEEWRGLGITQSLGWEMYEVHAPEPHILLFKREKDYQMKFSQQRGG | 0.24 kcal/mol | 1.6 kcal/mol/M | 4.27 M
MSKSGVPRLLTASERERLEPFIDQIHYSPRYADDEYEYRHVMLPKAMLKAIPTDYFNPETGTLRILQEEEWRGLGITQSLGWEMYEVHGPEPHILLFKREKDYQMKFSQQRGG | -0.81 kcal/mol | 1.63 kcal/mol/M | 4.93 M
MSKSGVPRLLTASERERLEPFIDQIHYSPRYADDEYEYRHVMLPKAMLKAIPTDYFNPETGTLRILQEEEWRGLGITQSLGWEMYEVHVAEAHILLFKREKDYQMKFSQQRGG | -0.93 kcal/mol | 1.4 kcal/mol/M | 5 M
MSKSGVPRLLTASERERLEPFIDQIHYSPRYADDEYEYRHVMLPKAMLKAIPTDYFNPETGTLRILQEEEWRGLGITQSLGWEMYEVHVGEPHILLFKREKDYQMKFSQQRGG | -1.33 kcal/mol | 1.53 kcal/mol/M | 5.25 M
MSKSGVPRLLTASERERLEPFIDQIHYSPRYADDEYEYRHVMLPKAMLKAIPTDYFNPETGTLRILQEEEWRGLGITQSLGWEMYEVHVGEGHILLFKREKDYQMKFSQQRGG | -0.88 kcal/mol | 1.46 kcal/mol/M | 4.97 M
MSKSGVPRLLTASERERLEPFIDQIHYGPRYADDEYEYRHVMLPKAMLKAIPTDYFNPETGTLRILQEEEWRGLGITQSLGWEMYEVHVPEPHILLFKREKDYQMKFSQQRGG | -0.89 kcal/mol | 1.62 kcal/mol/M | 4.98 M
MSKSGVPRLLTASERERLEPFIDQIHYAPRYADDEYEYRHVMLPKAMLKAIPTDYFNPETGTLRILQEEEWRGLGITQSLGWEMYEVHVPEPHILLFKREKDYQMKFSQQRGG | 0.34 kcal/mol | 1.61 kcal/mol/M | 4.21 M
MSKSGVPRLLTASERERLEPFIDQIHYSARYADDEYEYRHVMLPKAMLKAIPTDYFNPETGTLRILQEEEWRGLGITQSLGWEMYEVHVPEPHILLFKREKDYQMKFSQQRGG | -0.23 kcal/mol | 1.39 kcal/mol/M | 4.56 M
MSKSGVPRLLTASERERLEAFIDQIHYSPRYADDEYEYRHVMLPKAMLKAIPTDYFNPETGTLRILQEEEWRGLGITQSLGWEMYEVHVPEPHILLFKREKDYQMKFSQQRGG | 0.3 kcal/mol | 1.5 kcal/mol/M | 4.23 M
